Test results: article PMC9482650, “Quantitative fragmentomics allow affinity mapping of interactomes” (Nature Communications, 2022)

Columns and labels:
Assay in all cases: holdup assay
Parameters in all cases: key: below the threshold = too weak to quantify, mostly under pKd 3.1 to 4
DFNB31_1, Q9P202 = target: T1, DFNB31_1, Q9P202
T1 sequence (Q9P202 135-233, limits assumed, looked up): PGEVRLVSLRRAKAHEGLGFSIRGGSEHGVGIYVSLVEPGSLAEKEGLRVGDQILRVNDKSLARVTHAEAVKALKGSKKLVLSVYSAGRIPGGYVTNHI

DLG5_1, Q8TDM6 = target: DLG5_1, Q8TDM6
DLG5_1, Q8TDM6, sequence (Q8TDM6 617-713): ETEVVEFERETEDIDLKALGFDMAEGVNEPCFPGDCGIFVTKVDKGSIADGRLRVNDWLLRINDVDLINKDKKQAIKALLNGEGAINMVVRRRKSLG

FRMPD1, Q5SYB0 = target: T2, FRMPD1, Q5SYB0
T2 sequence (Q5SYB0 52-145, limits assumed, looked up): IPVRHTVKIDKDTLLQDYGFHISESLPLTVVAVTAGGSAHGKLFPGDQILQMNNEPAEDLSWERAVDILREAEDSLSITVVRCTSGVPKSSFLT

GOPC, Q9HD26 = target: GOPC, Q9HD26
LAP2, Q96RT1 = target: LAP2, Q96RT1
LAP2, Q96RT1, sequence (Q96RT1 other isoform, or with tags, fused parts or gaps): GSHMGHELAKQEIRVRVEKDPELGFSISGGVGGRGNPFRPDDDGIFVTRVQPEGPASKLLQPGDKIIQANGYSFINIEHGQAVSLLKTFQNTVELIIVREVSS

NHERF4_4, Q86UT5 = target: NHERF4_4, Q86UT5
NHERF4_4, Q86UT5, sequence (Q86UT5 464-550): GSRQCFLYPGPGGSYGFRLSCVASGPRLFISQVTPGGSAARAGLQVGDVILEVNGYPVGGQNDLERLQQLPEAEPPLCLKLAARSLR

SCRIB_1, Q14160 = target: SCRIB_1, Q14160
SCRIB_1, Q14160, sequence (Q14160 718-814): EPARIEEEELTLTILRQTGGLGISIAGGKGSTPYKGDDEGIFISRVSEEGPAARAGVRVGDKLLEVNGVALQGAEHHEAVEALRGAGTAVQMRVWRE

APBA2_1, Q99767 = target: T3, APBA2_1, Q99767
T3 sequence (Q99767 563-664, limits assumed, looked up): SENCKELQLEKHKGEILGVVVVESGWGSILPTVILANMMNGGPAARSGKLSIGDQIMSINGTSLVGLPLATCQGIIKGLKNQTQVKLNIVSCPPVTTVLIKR

DFNB31_3, Q9P202 = target: T4, DFNB31_3, Q9P202; conditions: plain residues with an end cap or a label only (N-terminal biotin on a linker: ttds)
T4 sequence (Q9P202 811-907, limits assumed, looked up): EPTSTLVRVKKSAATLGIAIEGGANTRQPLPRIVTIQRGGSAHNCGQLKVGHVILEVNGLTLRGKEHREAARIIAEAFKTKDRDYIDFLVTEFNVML

DLG2_2, Q15700 = target: DLG2_2, Q15700
DLG2_3, Q15700 = conditions: plain residues with an end cap or a label only (N-terminal biotin on a linker: ttds)
GORASP1, Q9BQQ3 = conditions: plain residues with an end cap or a label only (N-terminal biotin on a linker: ttds)
GORASP1, Q9BQQ3, sequence (Q9BQQ3 1-208): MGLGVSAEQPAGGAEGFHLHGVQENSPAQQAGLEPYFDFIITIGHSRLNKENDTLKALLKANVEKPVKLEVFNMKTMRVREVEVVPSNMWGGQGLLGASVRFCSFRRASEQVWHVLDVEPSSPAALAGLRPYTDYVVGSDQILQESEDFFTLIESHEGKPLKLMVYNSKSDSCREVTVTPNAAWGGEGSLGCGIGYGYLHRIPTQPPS

GRIP2_3, Q9C0E4 = conditions: plain residues with an end cap or a label only (N-terminal biotin on a linker: ttds)
GRIP2_3, Q9C0E4, sequence (Q9C0E4 238-339): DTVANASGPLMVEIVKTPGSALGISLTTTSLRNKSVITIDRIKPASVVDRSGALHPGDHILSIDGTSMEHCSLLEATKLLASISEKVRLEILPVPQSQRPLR

GRIP2_4, Q9C0E4 = target: GRIP2_4, Q9C0E4
GRIP2_4, Q9C0E4, sequence (Q9C0E4 446-548): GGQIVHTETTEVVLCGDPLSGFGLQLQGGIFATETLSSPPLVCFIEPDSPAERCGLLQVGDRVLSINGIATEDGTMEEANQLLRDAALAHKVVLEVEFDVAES

GRIP2_5, Q9C0E4 = target: GRIP2_5, Q9C0E4
GRIP2_5, Q9C0E4, sequence (Q9C0E4 544-642): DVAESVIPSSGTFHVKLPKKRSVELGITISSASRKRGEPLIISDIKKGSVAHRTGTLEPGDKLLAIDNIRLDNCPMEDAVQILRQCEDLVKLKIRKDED

GRIP2_6, Q9C0E4 = target: GRIP2_6, Q9C0E4
GRIP2_6, Q9C0E4, sequence (Q9C0E4 648-740): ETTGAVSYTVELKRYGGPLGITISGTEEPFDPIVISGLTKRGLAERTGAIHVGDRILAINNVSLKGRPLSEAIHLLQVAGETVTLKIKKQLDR

HTRA1, Q92743 = conditions: plain residues with an end cap or a label only (N-terminal biotin on a linker: ttds)
HTRA1, Q92743, sequence (Q92743 360-477): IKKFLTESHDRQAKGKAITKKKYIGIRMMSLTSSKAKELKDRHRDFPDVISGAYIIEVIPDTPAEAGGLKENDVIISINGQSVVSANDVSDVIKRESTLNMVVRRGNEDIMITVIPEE

Inadl_1, Q8NI35 = conditions: plain residues with an end cap or a label only (N-terminal biotin on a linker: ttds)
Inadl_1, Q8NI35, sequence (Q8NI35 113-229): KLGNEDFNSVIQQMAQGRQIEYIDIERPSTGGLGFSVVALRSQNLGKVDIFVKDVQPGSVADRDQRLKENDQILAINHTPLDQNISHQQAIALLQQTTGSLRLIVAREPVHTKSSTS

Inadl_6, Q8NI35 = target: Inadl_6, Q8NI35
Inadl_6, Q8NI35, sequence (Q8NI35 1058-1167): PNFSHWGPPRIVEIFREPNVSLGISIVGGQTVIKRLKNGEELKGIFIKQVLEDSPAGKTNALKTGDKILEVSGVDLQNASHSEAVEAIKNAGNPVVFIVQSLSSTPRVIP

LNX1_3, Q8TBB1 = target: LNX1_3, Q8TBB1
LNX1_3, Q8TBB1, sequence (Q8TBB1 500-596): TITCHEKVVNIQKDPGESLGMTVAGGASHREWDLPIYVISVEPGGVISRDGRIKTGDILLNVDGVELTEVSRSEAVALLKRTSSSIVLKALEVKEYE

MAGI1_1, Q96QZ7 = conditions: plain residues with an end cap or a label only (N-terminal biotin on a linker: ttds)
MAGI1_1, Q96QZ7, sequence (Q96QZ7 1-106): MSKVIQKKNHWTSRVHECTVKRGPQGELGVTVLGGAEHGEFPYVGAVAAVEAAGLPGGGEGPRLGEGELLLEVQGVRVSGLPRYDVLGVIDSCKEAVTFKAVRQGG

MAST2, Q6P0Q8 = conditions: plain residues with an end cap or a label only (N-terminal biotin on a linker: ttds)
MAST2, Q6P0Q8, sequence (Q6P0Q8 1099-1202): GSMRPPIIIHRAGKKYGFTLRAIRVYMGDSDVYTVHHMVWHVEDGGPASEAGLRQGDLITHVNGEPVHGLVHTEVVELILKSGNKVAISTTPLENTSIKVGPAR

MPDZ_5, O75970 = target: T5, MPDZ_5, O75970; conditions: plain residues with an end cap or a label only (N-terminal biotin on a linker: ttds)
T5 sequence (O75970 695-796, limits assumed, looked up): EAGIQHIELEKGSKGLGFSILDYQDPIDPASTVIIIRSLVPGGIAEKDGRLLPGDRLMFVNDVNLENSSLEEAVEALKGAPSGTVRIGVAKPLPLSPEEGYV

NHERF4_1, Q86UT5-2 = conditions: plain residues with an end cap or a label only (N-terminal biotin on a linker: ttds)
NHERF4_1, Q86UT5-2, sequence (Q86UT5 other isoform, or with tags, fused parts or gaps): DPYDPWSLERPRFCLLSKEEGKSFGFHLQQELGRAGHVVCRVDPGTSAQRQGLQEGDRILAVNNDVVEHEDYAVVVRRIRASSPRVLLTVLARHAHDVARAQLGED

PARD3B_1, Q8TEW8 = target: T6, PARD3B_1, Q8TEW8
T6 sequence (Q8TEW8 196-299, limits assumed, looked up): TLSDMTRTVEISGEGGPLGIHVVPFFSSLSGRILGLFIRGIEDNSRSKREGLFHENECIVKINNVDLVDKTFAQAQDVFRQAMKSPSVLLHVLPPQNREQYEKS

RHPN1, Q8TCX5 = target: T7, RHPN1, Q8TCX5; conditions: plain residues with an end cap or a label only (N-terminal biotin on a linker: ttds)
T7 sequence (Q8TCX5 508-602, limits assumed, looked up): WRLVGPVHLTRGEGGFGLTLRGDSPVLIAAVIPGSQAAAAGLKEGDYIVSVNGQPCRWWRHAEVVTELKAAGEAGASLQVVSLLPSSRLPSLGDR

SHANK1, Q9Y566 = target: T8, SHANK1, Q9Y566; conditions: plain residues with an end cap or a label only (N-terminal biotin on a linker: ttds)
T8 sequence (Q9Y566 658-767, limits assumed, looked up): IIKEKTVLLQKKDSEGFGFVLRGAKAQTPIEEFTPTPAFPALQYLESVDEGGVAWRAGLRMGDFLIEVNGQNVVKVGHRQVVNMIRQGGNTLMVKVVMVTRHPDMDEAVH

TJP3_3, O95049 = target: T9, TJP3_3, O95049; conditions: plain residues with an end cap or a label only (N-terminal biotin on a linker: ttds)
T9 sequence (O95049 375-456, limits assumed, looked up): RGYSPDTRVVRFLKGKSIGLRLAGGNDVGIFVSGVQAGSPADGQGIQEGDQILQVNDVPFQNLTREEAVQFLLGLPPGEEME

[1] = plain residues with an end cap or a label only (N-terminal biotin on a linker: ado-ado)
[2] = plain residues with an end cap or a label only (N-terminal biotin on a linker: ttds)

B1: MUC3B, MUC3A, Q02505;Q9H195 (peptide)
chain: KRPEMTSSSV
DFNB31_1, Q9P202; [1]
  pKd: 4.24
DLG5_1, Q8TDM6; [1]
  pKd: below the threshold
FRMPD1, Q5SYB0; [1]
  pKd: below the threshold
GOPC, Q9HD26; [1]
  pKd: 3.96
LAP2, Q96RT1; [1]
  pKd: 1.89
NHERF4_4, Q86UT5; [1]
  pKd: below the threshold
SCRIB_1, Q14160; [1]
  pKd: below the threshold

B2: CYSLTR2, Q9NS75 (peptide)
chain: SVWLRKETRV
APBA2_1, Q99767; [2]
  pKd: below the threshold
DFNB31_1, Q9P202; [2]
  pKd: 4.03
DFNB31_3, Q9P202
  pKd: below the threshold
DLG2_2, Q15700; [2]
  pKd: 5.24
DLG2_3, Q15700
  pKd: 5.4
DLG5_1, Q8TDM6; [2]
  pKd: below the threshold
FRMPD1, Q5SYB0; [2]
  pKd: below the threshold
GOPC, Q9HD26; [2]
  pKd: 4.27
GORASP1, Q9BQQ3
  pKd: 3.7
GRIP2_3, Q9C0E4
  pKd: below the threshold
GRIP2_4, Q9C0E4; [2]
  pKd: below the threshold
GRIP2_5, Q9C0E4; [2]
  pKd: below the threshold
GRIP2_6, Q9C0E4; [2]
  pKd: below the threshold
HTRA1, Q92743
  pKd: below the threshold
Inadl_1, Q8NI35
  pKd: below the threshold
Inadl_6, Q8NI35; [2]
  pKd: below the threshold
LAP2, Q96RT1; [2]
  pKd: 4.15
LNX1_3, Q8TBB1; [2]
  pKd: 3.46
MAGI1_1, Q96QZ7
  pKd: below the threshold
MAST2, Q6P0Q8
  pKd: 5.27
MPDZ_5, O75970
  pKd: 3.36
NHERF4_1, Q86UT5-2
  pKd: below the threshold
NHERF4_4, Q86UT5; [2]
  pKd: below the threshold
PARD3B_1, Q8TEW8; [2]
  pKd: below the threshold
RHPN1, Q8TCX5
  pKd: 4.08
SCRIB_1, Q14160; [2]
  pKd: 4.28
SHANK1, Q9Y566
  pKd: 3.51
TJP3_3, O95049
  pKd: 3.37

B3: GRASP, Q7Z6J2 (peptide)
chain: RSLEEEESQL
APBA2_1, Q99767; [2]
  pKd: below the threshold
DFNB31_1, Q9P202; [2]
  pKd: 3.86
DFNB31_3, Q9P202
  pKd: 3.74
DLG2_2, Q15700; [2]
  pKd: below the threshold
DLG2_3, Q15700
  pKd: below the threshold
DLG5_1, Q8TDM6; [2]
  pKd: below the threshold
FRMPD1, Q5SYB0; [2]
  pKd: 3.71
GOPC, Q9HD26; [2]
  pKd: 4.01
GORASP1, Q9BQQ3
  pKd: 3.72
GRIP2_3, Q9C0E4
  pKd: below the threshold
GRIP2_4, Q9C0E4; [2]
  pKd: 3.75
GRIP2_5, Q9C0E4; [2]
  pKd: below the threshold
GRIP2_6, Q9C0E4; [2]
  pKd: 3.64
HTRA1, Q92743
  pKd: 4.33
Inadl_1, Q8NI35
  pKd: below the threshold
Inadl_6, Q8NI35; [2]
  pKd: 4.05
LAP2, Q96RT1; [2]
  pKd: 3.69
LNX1_3, Q8TBB1; [2]
  pKd: below the threshold
MAGI1_1, Q96QZ7
  pKd: below the threshold
MAST2, Q6P0Q8
  pKd: 5.6
MPDZ_5, O75970
  pKd: 3.53
NHERF4_1, Q86UT5-2
  pKd: 3.9
NHERF4_4, Q86UT5; [2]
  pKd: below the threshold
PARD3B_1, Q8TEW8; [2]
  pKd: 4.28
RHPN1, Q8TCX5
  pKd: 4.71
SCRIB_1, Q14160; [2]
  pKd: 3.55
SHANK1, Q9Y566
  pKd: 5.1
TJP3_3, O95049
  pKd: 3.65

B4: NF2, P35240 (peptide)
chain: KSRVAFFEEL
APBA2_1, Q99767; [1]
  pKd: 3.54
DFNB31_1, Q9P202; [1]
  pKd: 3.64
DLG2_2, Q15700; [1]
  pKd: 3.51
GOPC, Q9HD26; [1]
  pKd: 3.63
GRIP2_4, Q9C0E4; [1]
  pKd: 3.73
GRIP2_5, Q9C0E4; [1]
  pKd: 3.54
GRIP2_6, Q9C0E4; [1]
  pKd: 3.77
Inadl_6, Q8NI35; [1]
  pKd: 3.47
LNX1_3, Q8TBB1; [1]
  pKd: 3.61
PARD3B_1, Q8TEW8; [1]
  pKd: 3.83
SCRIB_1, Q14160; [1]
  pKd: 3.64

B5: HPV16-E6, P03126 (peptide)
chain: SSRTRRETQL
APBA2_1, Q99767; [2]
  pKd: below the threshold
DFNB31_1, Q9P202; [2]
  pKd: 3.53
DFNB31_3, Q9P202
  pKd: below the threshold
DLG2_2, Q15700; [2]
  pKd: 4.93
DLG2_3, Q15700
  pKd: 5.1
DLG5_1, Q8TDM6; [2]
  pKd: below the threshold
FRMPD1, Q5SYB0; [2]
  pKd: below the threshold
GORASP1, Q9BQQ3
  pKd: 3.52
GRIP2_3, Q9C0E4
  pKd: below the threshold
GRIP2_4, Q9C0E4; [2]
  pKd: below the threshold
GRIP2_5, Q9C0E4; [2]
  pKd: below the threshold
GRIP2_6, Q9C0E4; [2]
  pKd: below the threshold
HTRA1, Q92743
  pKd: below the threshold
Inadl_1, Q8NI35
  pKd: below the threshold
Inadl_6, Q8NI35; [2]
  pKd: 3.49
LAP2, Q96RT1; [2]
  pKd: below the threshold
LNX1_3, Q8TBB1; [2]
  pKd: 3.51
MAGI1_1, Q96QZ7
  pKd: 3.5
MAST2, Q6P0Q8
  pKd: 5.66
MPDZ_5, O75970
  pKd: 3.67
NHERF4_1, Q86UT5-2
  pKd: 4.25
NHERF4_4, Q86UT5; [2]
  pKd: 3.61
PARD3B_1, Q8TEW8; [2]
  pKd: below the threshold
RHPN1, Q8TCX5
  pKd: 4.23
SCRIB_1, Q14160; [2]
  pKd: 5.42
SHANK1, Q9Y566
  pKd: 3.68
TJP3_3, O95049
  pKd: 3.68
